Laboratory results published in the nanobody polyreactivity screen of Harvey et al. (2022).

Assay: yeast display, Sf9 membrane polyspecificity reagent, FACS + sequencing; frameworks hold sequencing errors
Summary of the method: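 In a synthetic yeast display library (Saccharomyces cerevisiae BJ5465), nanobody expression was induced with galactose for 36–48 hours. FACS gates were set low and high (top ~1%) using anti-HA fluorescence for expression and streptavidin fluorescence for binding of the Sf9 membrane reagent. Each polyreactivity label is drawn from the gate of origin.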
With “QVQLVESGGGLVQAGGSLRLSCAASGSIFVGNAMGWYRQAPAKERELVDTISWSGGSTYYADSVKGRFTISRDNAKNTVYVQMTSLKPEDTAVYYCAKTPYRRYRYGCYTYRTYDYWGHGTQVTVSS” the “polyreactivity (PSR sort gate)” value was “low polyreactivity”. With “QVQLVESGGGLVQAGGSLRLSCAASGSIFVGNAMGWYRQAPGKERELVAAISSGGSTYYADSVKGRFTISRDNAKNTVYLQMNSLKPEDTAVYYCAAYYVRRYSSRPKDDYWGQGTQVTVSS” the “polyreactivity (PSR sort gate)” value was “low polyreactivity”. For “QVQLVESGGGLVQAGGSLRLSCAASGSIFVGNTMGWYRQAPGKERELVAALTWSGGRTYYADSVKGRFTISRDNEKNTVYLQMHSLKPEDTAVYYCNALANYIRYYYWGQGTQVTVSS”, the “polyreactivity (PSR sort gate)” value was “high polyreactivity”. In the case of “QVQLVESGGGLVQAGGSLRLSCAASGSIFVGYAMGWYRQAPGKERELVAAITFRGGSTYYADSVKGRFTISRDNAKNTVYLQMNSLKPEDTAVYYCNRVVRLRRPAQYNYWGQGTQVTVSS”, the “polyreactivity (PSR sort gate)” value is reported as “high polyreactivity”. In the case of “QVQLVESGGGLVQAGGSLRLSCAASGSIFVGYAMGWYRQAPGKEREVVAAISSSGTSTYYADSVKGRFTISRDNAKNTVYLQMNSLKPEDTAVYYCNARWYVPAYEFDYWGHGTQVTVSS”, the “polyreactivity (PSR sort gate)” value is reported as “low polyreactivity”. With “QVQLVESGGGLVQAGGSLRLSCAASGSIFVGYAMGWYRQAPWKERELVAAISKRGGGTYYADSVKGRFTISRDNAKNTVYLHMNSLKPEDTAVYYCNAVPVHLDVASGYYYWGQGTQVTVSS” the “polyreactivity (PSR sort gate)” value was “high polyreactivity”. In the case of “QVQLVESGGGLVQAGGSLRLSCAASGSIFVHYAMGWYRQAPGKERELVAAISRSGGSTYYADSVKGRFTISRDNAKNTFYLQMNSLKPEDTAVYYCAADSGYLSPYDYWGHGTQVTVSS”, the “polyreactivity (PSR sort gate)” value is reported as “low polyreactivity”. For “QVQLVESGGGLVQAGGSLRLSCAASGSIFVINAMGWYRQAPGKERELVAAISYSGTGTYYADSVKGRFTISRDNAKNTVYLQMNSLKPEDTAVYYCAADYYYRYRIYDYWGQGTQVTVSS”, the “polyreactivity (PSR sort gate)” value was “low polyreactivity”. In the case of “QVQLVESGGGLVQAGGSLRLSCAASGSIFVKNAMGWYRQAPGKERELVARITYSGGSTYYADSVKGRFTISRDNAKNTVYLQMNSLKPEDTADYYCDTDGNLRTAGYAYDHYYWGQGTQVTVSS”, the “polyreactivity (PSR sort gate)” value is reported as “high polyreactivity”. In the case of “QVQLVESGGGLVQAGGSLRLSCAASGSIFVKNAMGWYRQAPGKERELVAVITIRTATTYYADSVKGRFTISRDNAKNTVYLQMNSLKPEDTAVYYCAAAKRQRGYLQREGNYWGQGTQVTVSS”, the “polyreactivity (PSR sort gate)” value is reported as “low polyreactivity”. With “QVQLVESGGGLVQAGGSLRLSCAASGSIFVKYAMGWYRQAPGTERELVAAISGSGGSTYYADSVKGRFTISRDNAKNTVYLQMNSLKPEDTAVYYCAADDYFYSGRYGFEYWGQGTQVTVSS” the “polyreactivity (PSR sort gate)” value was “low polyreactivity”. With “QVQLVESGGGLVQAGGSLRLSCAASGSIFVLNAMGWYRQAPGKERELVAAISSADSTTYADSVKGRFTISRDNAKNSVYLQMNSLKPEDTAVYYCAADWWYVLIFDYWGQGTQVTVSS” the “polyreactivity (PSR sort gate)” value was “low polyreactivity”. With “QVQLVESGGGLVQAGGSLRLSCAASGSIFVLNAMGWYRQAPGKERELVATITWRGGSTYYADSVKGRFTISRDNAKNTVYLQMNSLKPEDTAVYYCAKVDIRHHRFYYWGHGTQVTVSS” the “polyreactivity (PSR sort gate)” value was “low polyreactivity”. With “QVQLVESGGGLVQAGGSLRLSCAASGSIFVLYAMGWYRQAPGKERELVAAINYDGASTYYADSVKGRFTISRDNAKNTVYLQMNSLKPEDTAVYYCAARWQFNIDVQLYLFEYWGQGTEVTVSS” the “polyreactivity (PSR sort gate)” value was “low polyreactivity”. In the case of “QVQLVESGGGLVQAGGSLRLSCAASGSIFVLYAMGWYRQAPGKERELVAAITASGGSTHYADSVKGRFTISRDNAKNTVYLQMNSLKPEDTAVYYCNADVYTEYDYWGQGTQVTVSS”, the “polyreactivity (PSR sort gate)” value is reported as “low polyreactivity”. In the case of “QVQLVESGGGLVQAGGSLRLSCAASGSIFVLYAMGWYRQAPGKERELVATITWSGDSTYYADSVKGRFTISRDNAKNTVYLQMNSLKPEDTAVYYCNKRIWDQYDWGQGTQVTVSS”, the “polyreactivity (PSR sort gate)” value is reported as “low polyreactivity”. With “QVQLVESGGGLVQAGGSLRLSCAASGSIFVLYTIGWYRQAPGKERELVGAISYSGGSTNYADSVKGRFTISRDNAKNTVYLQMNSLKPEDTSVYYCADRASKGHKYWGQGTQVTVSS” the “polyreactivity (PSR sort gate)” value was “high polyreactivity”. With “QVQLVESGGGLVQAGGSLRLSCAASGSIFVLYTMGWYRQAPGKERELVAAISYSGGSTNYADSVKGRFTISRDNAKNTVYLQMNSLKPEDTAVYYCAARASKGHKYWGQGTQVTVSS” the “polyreactivity (PSR sort gate)” value was “high polyreactivity”. In the case of “QVQLVESGGGLVQAGGSLRLSCAASGSIFVNYAMGWYSQAPGTERELVAAISWRGGITYGVSVKGRFTISRDNAKNTVYLQMNSLKPEDTADYYSNTDGDDFFHVIYDYWAQGTQVTVSS”, the “polyreactivity (PSR sort gate)” value is reported as “low polyreactivity”. For “QVQLVESGGGLVQAGGSLRLSCAASGSIFVPYAMGWYRQAPGKERELVAAISSGGSTNYADSVKGRFTISRDNAKNTVYLQMNSLKPEDTAVYYCNADYSVYIIADEYDYWGQGTQVTVSS”, the “polyreactivity (PSR sort gate)” value was “low polyreactivity”. For “QVQLVESGGGLVQAGGSLRLSCAASGSIFVPYAMGWYRQAPGKERELVASINWNGSSTYADSVKGRFTISRDNAKNSVYLQMNSLKPEDTAVYYCNADYNRNSVQFSLYDYWGQGTQVTVST”, the “polyreactivity (PSR sort gate)” value was “low polyreactivity”. For “QVQLVESGGGLVQAGGSLRLSCAASGSIFVPYAMGWYRQAPGKERELVAVITSGGSTYYADSVKGRFTISRDNAKNTVFLQMNSLKPEDTAVYYCAVDGGEFSSYGYWGQGTQVTVSS”, the “polyreactivity (PSR sort gate)” value was “low polyreactivity”. For “QVQLVESGGGLVQAGGSLRLSCAASGSIFVPYTMGWYRQAPGKERELVASISYSGGTTYYADSVKGRFTISRDNAKNTVYLQMNSLKPEDTAVYYCAAQTLDGYDYWGQGTQVTVSS”, the “polyreactivity (PSR sort gate)” value was “low polyreactivity”. With “QVQLVESGGGLVQAGGSLRLSCAASGSIFVQYAMGWYRQAPGKERELVATISSSGGSTYYADSVKGRFTISRDNAKNTVYLQMNSLKPEDTAVYYCAADWTLDPSYGYYADDYWGQGTQVTVST” the “polyreactivity (PSR sort gate)” value was “low polyreactivity”. With “QVQLVESGGGLVQAGGSLRLSCAASGSIFVRNAMGWYRQAPGKEREFVATITSSGGTTYYADSVKGRFTISRDNAKNTVYLQMNSLKPDDTAVYYCNADAGWYDWVYYVGRDYWGQGTQVTVSS” the “polyreactivity (PSR sort gate)” value was “low polyreactivity”. In the case of “QVQLVESGGGLVQAGGSLRLSCAASGSIFVRNAMGWYRQAPGKERELVAAITARGGSTYYADSVKGRFTISRDNAKNTVYLLMHSLKPEDTAVYYCARSYYYRGWAQWRYDYWGQGTQVTVSS”, the “polyreactivity (PSR sort gate)” value is reported as “high polyreactivity”. For “QVQLVESGGGLVQAGGSLRLSCAASGSIFVRNGMGWYRQAPGKERELVASITSGTITYYADSVKGRFTISRDNAKNTVYLQMNSLKPEDTAVYYCNAGWRSSRMEYWGQGTQVTVSS”, the “polyreactivity (PSR sort gate)” value was “high polyreactivity”. With “QVQLVESGGGLVQAGGSLRLSCAASGSIFVRNVMGWYRQAPGKERELVAGISWNGGSTFNADSVKGRFTISRDNAKNTVYLQMNSLKQEDTAVYYCAARGRHSGYYSFPYYYWGQGTQVTVSS” the “polyreactivity (PSR sort gate)” value was “low polyreactivity”. For “QVQLVESGGGLVQAGGSLRLSCAASGSIFVRNVMGWYRQPPGKERELVATIRYRGGSTYYADSVKGRFTISRDYAKNTVYLQMNSLKPEDTAVYYCNARYLWADEYYYWGQGTQVTVSS”, the “polyreactivity (PSR sort gate)” value was “low polyreactivity”. With “QVQLVESGGGLVQAGGSLRLSCAASGSIFVRYAMGWYRQAPGKERELVAAISSGGRTYYADSVKGRFTISRDNAKYTVYLQMNSLKPEDTAVYYCNAVKRVPSLGPYDYWGQGTQVTVSS” the “polyreactivity (PSR sort gate)” value was “high polyreactivity”. For “QVQLVESGGGLVQAGGSLRLSCAASGSIFVRYAMGWYRQAPGKERELVASIRSRGDSTYYADSVKGRFTISRDNAKNTVYLQMNSLKPEDTAVYYCAARRYPPRMDYWGQGTQVTVSS”, the “polyreactivity (PSR sort gate)” value was “high polyreactivity”. For “QVQLVESGGGLVQAGGSLRLSCAASGSIFVRYAMGWYRQAPGKERELVAVISSDGRTYYADSVKGRFTISRDNAKNTVYLQMNSLKPEDTAVYYCAKRAWGFGGYDYWGQGTQVTVSS”, the “polyreactivity (PSR sort gate)” value was “low polyreactivity”. With “QVQLVESGGGLVQAGGSLRLSCAASGSIFVRYTMGWYRQAPGKETELVAAISWGGGSTYYADSVKGRFTISRDNAKNSVYLQMNSLKPEDTAVYYCNKRYIQLYDYWGQGTKVTVSS” the “polyreactivity (PSR sort gate)” value was “low polyreactivity”. For “QVQLVESGGGLVQAGGSLRLSCAASGSIFVSNAMGWYRQAPGKERELVAAITSSGSTDYADSVKGRFTISRDNAKNTVYLQMNSLKPDDTAVYYCAAESDHTFFLWSLNDSWGQGTQVTVSS”, the “polyreactivity (PSR sort gate)” value was “low polyreactivity”. With “QVQLVESGGGLVQAGGSLRLSCAASGSIFVSNTMGWYRQAPGKEREMVASIRETAGSTNYADSVKGRFTISRDYAKNTFYLQMNSLKPEDTAVYYCAARYSPTRYHYGYWGQGTQVTVSS” the “polyreactivity (PSR sort gate)” value was “low polyreactivity”. With “QVQLVESGGGLVQAGGSLRLSCAASGSIFVTNPMGWYRQAPGKERELVAAIRGGGGSTYYADSVKGRFTISRDNAKNTVYLQMNSLKPEDTAVYYCNADRRGYLQSEMDYWGQGTQVTVSS” the “polyreactivity (PSR sort gate)” value was “low polyreactivity”. For “QVQLVESGGGLVQAGGSLRLSCAASGSIFVTYAMGWYRQAPGKERELVAAISTSGGSTYADSVKGRFTISRDNAKNTVYLQMNSLKPEDTAVYYCNADDPGYAVPWYWFKSDYWGQGTQVTVSS”, the “polyreactivity (PSR sort gate)” value was “low polyreactivity”. For “QVQLVESGGGLVQAGGSLRLSCAASGSIFVTYAMGWYRQAPGKERELVAVITWGGGSTYYADSVKGRFTISRDNAKNTVYLQMNSLKPEDTAVYYCAKDSYYYRRDVTVDYWGQGTQVTVSS”, the “polyreactivity (PSR sort gate)” value was “low polyreactivity”. In the case of “QVQLVESGGGLVQAGGSLRLSCAASGSIFVTYDLGWYRQAAGKERELVAGISGSGSTNYADSVKGRFTISRDNAKNTVYLQMNSLKPEDTAVYYCNTDGLWSAEYDYWGQGTQVTVSS”, the “polyreactivity (PSR sort gate)” value is reported as “low polyreactivity”. In the case of “QVQLVESGGGLVQAGGSLRLSCAASGSIFVVYAMGWYRQAPGKERELVASIRTGGSTNYADSVKGRFTISRDNAKNTVYLQMNSLKPEDTAVYYCAAASWNSNSHYYVARYYYWGHGTQVTVSS”, the “polyreactivity (PSR sort gate)” value is reported as “high polyreactivity”. With “QVQLVESGGGLVQAGGSLRLSCAASGSIFVVYGMGWYRQAPGKERELVAAISGGITNYADSVKGRFTISRDNAKNTVYLQMNSLKPEDTAVYYCATVDGAYQYTYDYWGQGTQVTVSS” the “polyreactivity (PSR sort gate)” value was “low polyreactivity”.
